No end group written: not given here.
Key:
Assay in all cases: Kinase Profiling Assay
Assay type in all cases: biochemical
Conditions in all cases: peptide 100 μM
CHK1(h) = molecular target: T1, CHK1(h) (Homo sapiens, UniProt O14757)
T1 sequence (O14757 1-476): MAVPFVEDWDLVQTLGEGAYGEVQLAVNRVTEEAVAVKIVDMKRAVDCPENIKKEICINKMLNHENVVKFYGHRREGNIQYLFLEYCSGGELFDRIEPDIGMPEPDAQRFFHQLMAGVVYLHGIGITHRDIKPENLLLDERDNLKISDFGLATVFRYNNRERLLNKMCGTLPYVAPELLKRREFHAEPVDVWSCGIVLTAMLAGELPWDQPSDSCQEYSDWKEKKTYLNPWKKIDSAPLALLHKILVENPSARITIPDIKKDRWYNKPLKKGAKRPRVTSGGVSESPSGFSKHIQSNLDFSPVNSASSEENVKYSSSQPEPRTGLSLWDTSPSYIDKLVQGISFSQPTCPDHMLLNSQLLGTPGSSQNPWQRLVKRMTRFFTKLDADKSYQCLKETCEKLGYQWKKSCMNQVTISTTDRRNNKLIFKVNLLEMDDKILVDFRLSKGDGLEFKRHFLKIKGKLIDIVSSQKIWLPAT
In short: (§1)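 Measured twice per kinase, activity in presence of MK2 inhibitory peptide was calculated against a 100% activity control after radiometric phosphorylation of a cationic substrate, anionic filter capture and scintillation counting; one of 266 human kinases profiled for specificity.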

Flt4(h) = Flt4(h) (Homo sapiens, UniProt P35916)
In short: as §1

LKB1(h) = molecular target: T2, LKB1(h) (Homo sapiens, UniProt Q15831)
T2 construct: purchased Millipore
T2 sequence (Q15831 1-433): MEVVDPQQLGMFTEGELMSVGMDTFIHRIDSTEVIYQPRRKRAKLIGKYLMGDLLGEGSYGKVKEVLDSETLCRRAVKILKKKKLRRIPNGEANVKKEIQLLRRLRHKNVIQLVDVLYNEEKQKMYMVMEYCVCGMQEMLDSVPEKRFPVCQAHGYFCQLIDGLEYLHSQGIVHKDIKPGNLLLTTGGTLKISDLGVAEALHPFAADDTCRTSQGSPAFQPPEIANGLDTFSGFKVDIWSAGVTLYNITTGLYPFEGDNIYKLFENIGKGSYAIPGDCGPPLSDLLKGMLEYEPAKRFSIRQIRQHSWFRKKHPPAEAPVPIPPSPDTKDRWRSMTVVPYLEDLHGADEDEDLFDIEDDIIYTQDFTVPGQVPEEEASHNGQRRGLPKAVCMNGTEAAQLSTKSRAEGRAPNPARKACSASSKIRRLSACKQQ
T2 sequence (Q7RTN6 1-431 partner): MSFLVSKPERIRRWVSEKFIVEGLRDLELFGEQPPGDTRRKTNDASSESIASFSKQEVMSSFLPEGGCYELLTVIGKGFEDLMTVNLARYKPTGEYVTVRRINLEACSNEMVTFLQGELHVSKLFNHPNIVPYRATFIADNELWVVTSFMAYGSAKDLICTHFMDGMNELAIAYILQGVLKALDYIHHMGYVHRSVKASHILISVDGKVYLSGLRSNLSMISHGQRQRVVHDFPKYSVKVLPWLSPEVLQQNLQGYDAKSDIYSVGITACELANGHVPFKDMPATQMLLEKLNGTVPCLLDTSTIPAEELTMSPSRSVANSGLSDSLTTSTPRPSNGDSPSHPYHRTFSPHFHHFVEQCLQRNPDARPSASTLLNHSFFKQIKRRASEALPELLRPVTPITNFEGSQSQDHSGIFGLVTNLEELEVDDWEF
T2 sequence (Q9Y376 1-341 partner): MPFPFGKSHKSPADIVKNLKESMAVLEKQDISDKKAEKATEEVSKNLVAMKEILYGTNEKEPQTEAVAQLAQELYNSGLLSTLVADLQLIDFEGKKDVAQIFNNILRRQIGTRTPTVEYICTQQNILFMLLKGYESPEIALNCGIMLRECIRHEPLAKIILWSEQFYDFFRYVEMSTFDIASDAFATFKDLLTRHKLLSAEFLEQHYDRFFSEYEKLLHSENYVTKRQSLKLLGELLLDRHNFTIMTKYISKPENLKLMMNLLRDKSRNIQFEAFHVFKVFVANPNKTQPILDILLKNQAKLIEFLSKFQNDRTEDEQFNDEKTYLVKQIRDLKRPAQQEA
In short: as §1

PDGFRα(h) = PDGFRα(h) (Homo sapiens, UniProt P16234)
In short: as §1

Ron(h) = Ron(h) (Homo sapiens, UniProt Q04912)
In short: as §1

SAPK4(h) = molecular target: T3, SAPK4(h) (Homo sapiens, UniProt O15264)
T3 construct: purchased Millipore
T3 sequence (O15264 1-365): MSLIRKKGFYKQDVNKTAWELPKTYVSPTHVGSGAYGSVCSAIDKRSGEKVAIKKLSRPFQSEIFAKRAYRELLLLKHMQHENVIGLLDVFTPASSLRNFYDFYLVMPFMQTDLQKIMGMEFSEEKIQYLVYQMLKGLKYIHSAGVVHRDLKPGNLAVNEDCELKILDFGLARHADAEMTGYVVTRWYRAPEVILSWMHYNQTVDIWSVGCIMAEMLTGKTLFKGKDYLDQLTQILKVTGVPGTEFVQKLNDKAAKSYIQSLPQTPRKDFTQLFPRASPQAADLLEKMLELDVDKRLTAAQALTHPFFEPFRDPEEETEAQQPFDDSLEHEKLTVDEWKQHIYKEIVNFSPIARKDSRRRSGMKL
In short: as §1

SGK2(h) = molecular target: T4, SGK2(h) (Homo sapiens, UniProt Q9HBY8)
T4 construct: purchased Millipore
T4 sequence (Q9HBY8 1-367): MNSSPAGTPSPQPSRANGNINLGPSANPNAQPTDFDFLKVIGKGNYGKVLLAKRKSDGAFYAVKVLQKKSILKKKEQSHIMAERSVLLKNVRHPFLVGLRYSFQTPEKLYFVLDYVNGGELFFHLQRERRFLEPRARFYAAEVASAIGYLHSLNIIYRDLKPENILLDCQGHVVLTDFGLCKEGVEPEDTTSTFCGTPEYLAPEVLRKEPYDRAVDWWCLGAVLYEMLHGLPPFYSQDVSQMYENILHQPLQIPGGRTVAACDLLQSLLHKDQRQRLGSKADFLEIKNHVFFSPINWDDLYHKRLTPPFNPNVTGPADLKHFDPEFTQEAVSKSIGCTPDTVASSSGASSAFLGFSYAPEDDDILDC
In short: as §1

Yes(h) = Yes(h) (Homo sapiens, UniProt P07947)
In short: as §1

Chain of Flt4(h) (P35916 25-1363): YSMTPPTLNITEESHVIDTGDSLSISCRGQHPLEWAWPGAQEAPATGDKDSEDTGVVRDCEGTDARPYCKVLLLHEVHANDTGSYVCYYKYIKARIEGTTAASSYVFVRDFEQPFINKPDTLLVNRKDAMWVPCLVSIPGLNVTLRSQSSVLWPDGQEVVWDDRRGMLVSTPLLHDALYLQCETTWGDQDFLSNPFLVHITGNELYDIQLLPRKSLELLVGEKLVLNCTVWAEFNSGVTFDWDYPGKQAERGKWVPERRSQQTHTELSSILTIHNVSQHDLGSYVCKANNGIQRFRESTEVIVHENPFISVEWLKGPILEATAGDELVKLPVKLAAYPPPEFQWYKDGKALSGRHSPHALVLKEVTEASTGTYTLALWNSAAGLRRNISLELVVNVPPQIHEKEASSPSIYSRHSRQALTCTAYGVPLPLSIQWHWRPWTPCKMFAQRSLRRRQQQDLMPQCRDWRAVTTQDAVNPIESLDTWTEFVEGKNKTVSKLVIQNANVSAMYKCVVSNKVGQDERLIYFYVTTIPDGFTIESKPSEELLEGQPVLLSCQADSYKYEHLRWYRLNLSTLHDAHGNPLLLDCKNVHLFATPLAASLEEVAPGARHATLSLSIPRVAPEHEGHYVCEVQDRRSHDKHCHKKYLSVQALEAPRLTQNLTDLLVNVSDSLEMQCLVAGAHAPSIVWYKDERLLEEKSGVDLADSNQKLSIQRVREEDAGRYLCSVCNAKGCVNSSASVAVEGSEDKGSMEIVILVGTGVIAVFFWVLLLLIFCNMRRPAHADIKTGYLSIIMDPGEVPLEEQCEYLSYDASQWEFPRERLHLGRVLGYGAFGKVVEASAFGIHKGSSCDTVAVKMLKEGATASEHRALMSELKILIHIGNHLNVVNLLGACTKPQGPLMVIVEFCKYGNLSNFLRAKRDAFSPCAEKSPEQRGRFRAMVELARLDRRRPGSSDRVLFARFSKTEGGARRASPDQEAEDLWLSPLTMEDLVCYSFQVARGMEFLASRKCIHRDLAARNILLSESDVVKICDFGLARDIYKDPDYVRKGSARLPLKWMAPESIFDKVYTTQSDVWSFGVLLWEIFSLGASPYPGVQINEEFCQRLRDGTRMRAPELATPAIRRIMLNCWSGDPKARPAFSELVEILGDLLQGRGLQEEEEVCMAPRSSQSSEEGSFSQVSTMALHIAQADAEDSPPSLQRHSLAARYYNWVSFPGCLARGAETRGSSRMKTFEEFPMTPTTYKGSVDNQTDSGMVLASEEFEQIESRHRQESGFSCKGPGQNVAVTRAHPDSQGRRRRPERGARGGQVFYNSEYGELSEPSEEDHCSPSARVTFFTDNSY
Chain of PDGFRα(h) (P16234 24-1089): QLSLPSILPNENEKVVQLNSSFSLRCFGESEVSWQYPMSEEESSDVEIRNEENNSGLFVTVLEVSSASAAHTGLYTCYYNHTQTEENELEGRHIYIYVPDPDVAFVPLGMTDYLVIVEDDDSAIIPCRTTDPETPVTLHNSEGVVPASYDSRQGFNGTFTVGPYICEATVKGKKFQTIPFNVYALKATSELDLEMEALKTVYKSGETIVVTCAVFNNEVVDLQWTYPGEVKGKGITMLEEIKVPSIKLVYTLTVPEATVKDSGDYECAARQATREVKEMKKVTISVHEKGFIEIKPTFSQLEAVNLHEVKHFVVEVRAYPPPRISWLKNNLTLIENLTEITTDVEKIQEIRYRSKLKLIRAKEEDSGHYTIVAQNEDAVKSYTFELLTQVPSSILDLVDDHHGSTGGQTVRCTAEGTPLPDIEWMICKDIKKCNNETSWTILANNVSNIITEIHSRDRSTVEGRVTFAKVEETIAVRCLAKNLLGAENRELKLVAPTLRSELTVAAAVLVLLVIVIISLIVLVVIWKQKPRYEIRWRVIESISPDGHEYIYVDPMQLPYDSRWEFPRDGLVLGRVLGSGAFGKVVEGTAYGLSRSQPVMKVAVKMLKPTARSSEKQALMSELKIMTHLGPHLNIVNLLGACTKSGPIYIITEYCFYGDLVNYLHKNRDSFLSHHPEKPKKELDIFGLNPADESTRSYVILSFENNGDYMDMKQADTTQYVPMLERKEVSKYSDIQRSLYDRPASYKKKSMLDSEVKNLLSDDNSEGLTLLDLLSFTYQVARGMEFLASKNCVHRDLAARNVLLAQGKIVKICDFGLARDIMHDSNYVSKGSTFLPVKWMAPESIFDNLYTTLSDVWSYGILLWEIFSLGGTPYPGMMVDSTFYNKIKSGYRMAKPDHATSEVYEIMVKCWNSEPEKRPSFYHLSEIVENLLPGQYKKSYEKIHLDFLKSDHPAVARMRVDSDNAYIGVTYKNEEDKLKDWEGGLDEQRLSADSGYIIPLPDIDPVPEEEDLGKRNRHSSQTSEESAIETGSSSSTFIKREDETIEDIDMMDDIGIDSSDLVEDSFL
Chain of Yes(h) (P07947 whole entry): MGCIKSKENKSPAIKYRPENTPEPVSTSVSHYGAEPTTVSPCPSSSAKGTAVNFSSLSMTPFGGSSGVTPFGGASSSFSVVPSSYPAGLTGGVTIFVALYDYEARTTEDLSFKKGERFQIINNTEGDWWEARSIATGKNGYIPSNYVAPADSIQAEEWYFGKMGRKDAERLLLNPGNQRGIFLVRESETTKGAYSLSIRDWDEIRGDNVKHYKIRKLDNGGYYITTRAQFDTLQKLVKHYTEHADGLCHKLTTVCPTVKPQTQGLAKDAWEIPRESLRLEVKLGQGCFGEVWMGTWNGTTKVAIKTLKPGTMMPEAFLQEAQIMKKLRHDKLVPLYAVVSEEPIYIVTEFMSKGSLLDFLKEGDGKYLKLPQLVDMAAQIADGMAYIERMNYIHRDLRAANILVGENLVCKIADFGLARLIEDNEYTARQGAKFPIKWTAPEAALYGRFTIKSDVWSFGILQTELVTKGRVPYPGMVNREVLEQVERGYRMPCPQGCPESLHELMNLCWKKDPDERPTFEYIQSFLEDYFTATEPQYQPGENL

Sequence	% activity (CHK1(h)) [%]	% activity (Flt4(h)) [%]	% activity (LKB1(h)) [%]	% activity (PDGFRα(h)) [%]	% activity (Ron(h)) [%]	% activity (SAPK4(h)) [%]	% activity (SGK2(h)) [%]	% activity (Yes(h)) [%]
KAFAKLAARLYRKALARQLGVAA [MMI-0400]	87	89	89	40	79	91	98	14
FAKLAARLYRKALARQLGVAA [MMI-0300]	91	83	101	65	93	96	56	67
YARAAARQARAKALARQLGVAA [MMI-0100]		135						
HRRIKAWLKKIKALARQLGVAA (Mammal) [MMI-0500]	65	73	51	40	46	48	-1	
YARAAARQARAKALNRQLGVA (Mammal) [MMI-0200]			99	108	120			93

From US20150258192A1, “COMPOSITIONS AND METHODS FOR PREVENTING OR TREATING CHRONIC LUNG ALLOGRAFT DYSFUNCTION (CLAD) AND IDIOPATHIC PULMONARY FIBROSIS (IPF)” (priority 2014, published 2015)
